Tests used:
[1] = molecular target: IGFBP-5-FLAG protein (full-length IGFBP-5 with the FLAG tag of SEQ ID NO: 12 at the C-terminus), P24593
[2] = molecular target: IGFBP-3 (commercially available, upstate biotechnology), P17936
[3] = molecular target: IGFBP-5 (commercially available, upstate biotechnology), P24593
IGFBP-5 (commercially available, upstate biotechnology), P24593, sequence (P24593 21-272): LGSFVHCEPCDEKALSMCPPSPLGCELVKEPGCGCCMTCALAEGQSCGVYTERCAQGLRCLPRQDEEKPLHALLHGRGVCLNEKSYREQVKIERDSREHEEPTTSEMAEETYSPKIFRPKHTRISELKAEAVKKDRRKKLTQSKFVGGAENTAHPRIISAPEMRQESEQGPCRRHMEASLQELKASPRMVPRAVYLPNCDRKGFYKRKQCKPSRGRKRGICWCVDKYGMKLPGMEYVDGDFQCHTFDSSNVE

IGFBP-5-FLAG protein (full-length IGFBP-5 with the FLAG tag of SEQ ID NO: 12 at the C-terminus), P24593, sequence (P24593 other isoform, or with tags, fused parts or gaps): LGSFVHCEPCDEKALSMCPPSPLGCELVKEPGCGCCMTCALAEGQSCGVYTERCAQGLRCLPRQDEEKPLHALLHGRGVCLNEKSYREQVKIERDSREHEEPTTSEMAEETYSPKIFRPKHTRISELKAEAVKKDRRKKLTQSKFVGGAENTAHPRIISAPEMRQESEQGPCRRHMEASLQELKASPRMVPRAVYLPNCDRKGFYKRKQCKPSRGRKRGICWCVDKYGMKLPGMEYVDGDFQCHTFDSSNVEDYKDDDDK
IGFBP-3 (commercially available, upstate biotechnology), P17936, sequence (P17936 28-291): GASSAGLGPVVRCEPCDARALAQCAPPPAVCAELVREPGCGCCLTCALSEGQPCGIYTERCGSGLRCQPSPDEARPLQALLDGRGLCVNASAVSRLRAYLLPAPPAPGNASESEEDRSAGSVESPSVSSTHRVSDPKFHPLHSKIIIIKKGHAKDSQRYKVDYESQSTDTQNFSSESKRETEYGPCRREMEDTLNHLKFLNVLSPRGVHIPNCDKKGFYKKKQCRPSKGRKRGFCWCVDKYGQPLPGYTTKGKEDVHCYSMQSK

B1: MD8S-FLAG protein (extracellular region of human MD8, amino acids 1 to 646 of SEQ ID NO: 2, with a C-terminal FLAG tag) (protein)
chain: IAPSRPWALMEQYEVVLPRRLPGPRVRRALPSHLGLHPERVSYVLGATGHNFTLHLRKNRDLLGSGYTETYTAANGSEVTEQPRGQDHCFYQGHVEGYPDSAASLSTCAGLRGFFQVGSDLHLIEPLDEGGEGGRHAVYQAEHLLQTAGTCGVSDDSLGSLLGPRTAAVFRPRPGDSLPSRETRYVELYVVVDNAEFQMLGSEAAVRHRVLEVVNHVDKLYQKLNFRVVLVGLEIWNSQDRFHVSPDPSVTLENLLTWQARQRTRRHLHDNVQLITGVDFTGTTVGFARVSAMCSHSSGAVNQDHSKNPVGVACTMAHEMGHNLGMDHDENVQGCRCQERFEAGRCIMAGSIGSSFPRMFSDCSQAYLESFLERPQSVCLANAPDLSHLVGGPVCGNLFVERGEQCDCGPPEDCRNRCCNSTTCQLAEGAQCAHGTCCQECKVKPAGELCRPKKDMCDLEEFCDGRHPECPEDAFQENGTPCSGGYCYNGACPTLAQQCQAFWGPGGQAAEESCFSYDILPGCKASRYRADMCGVLQCKGGQQPLGRAICIVDVCHALTTEDGTAYEPVPEGTRCGPEKVCWKGRCQDLHVYRSSNCSAQCHNHGVCNHKQECHCHAGWAPPHCAKLLTEDYKDDDDK
activity of digesting recombinant IGFBP-5 (overnight reaction at 37 C, SDS-PAGE and western blot with biotinylated M2 antibody) [1]: recombinant IGFBP-5, which was detected in the control without the MD8S enzyme solution, was made to disappear by adding the MD8S enzyme solution
activity of digesting IGFBP-3 (overnight reaction at 37 C, SDS-PAGE and western blot) [2]: a new band of 25 kDa was detected in the case of IGFBP-3
activity of digesting IGFBP-5 (overnight reaction at 37 C, SDS-PAGE and western blot) [3]: new plural bands within the range of 12 to 25 kDa were detected in the case of IGFBP-5

Source: US20040241778
